# Assay results published in the supplement of paper PMC9170038.
# System: MS2 coat protein
# Test: apparent KD of MS2 coat protein; designed switch direction (-1 OFF switch, 1 ON switch): 1; higher = weaker reporter binding
# Method in brief: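 For each design, the apparent KD is the median over clusters of curves fitted to normalised cluster fluorescence. Clusters held RNA switches with common flanks, transcribed on Illumina chips by stalled E. coli RNA polymerase. These were titrated with SNAP-549-labelled MS2 coat protein, doubling from 0.7 or 1.5 nM to 3 µM, without input, with 200 uM small-molecule ligand, or with an oligonucleotide input.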
# [1] = Eterna round: R95, input ligand: FMN 200 uM
# [2] = Eterna round: R95, input ligand: microRNA oligo, concentration not stated
# [3] = Eterna round: R95, input ligand: none
# [4] = input ligand: microRNA oligo, concentration not stated
Sequence,apparent KD of MS2 coat protein [1],apparent KD of MS2 coat protein [2],apparent KD of MS2 coat protein [3],apparent KD of MS2 coat protein (input ligand: FMN 200 uM),apparent KD of MS2 coat protein [4],apparent KD of MS2 coat protein (input ligand: none)
GGAGCCGGCACUGAGGAUAUUCAUAUUAAAACAUGAGGAUCACCCAUGUGGGCCAGAAGGCCUUGGGAGAAGGCAGGUCGGCCCG [Bibimoar - 4] (puzzle: Same State 2),20.2 nM,140 nM,183 nM,,,
GUCCGGCUGCCACAGGAUAUACGUGGAUCGACAUGAGGAUCACCCAUGUAUAUCCUAAUAAUUGCGUAGAAGGGUGGUCAGCCGG [Dionbe] (puzzle: Same State 2),78.3 nM,540 nM,1180 nM,,,
AGUCCAGCCUGAGCUGGACAAAAGCAUGUACAUGAGGAUCACCCAUGUCAUGUACAAGCUUUUUGCUCGUCUUAGAA [Mat - hsa-mir-208a - Mod of JL - D26] (puzzle: Sensor for hsa-mir-208a),624 nM,16.7 nM,756 nM,,,
"GCCGCGUUUCGCGCCUACAUGAGGAUCACCCAUGUUUGUCGGCAGGAUAUCGUCCGCUCUGCGGGCGAGAAGGGCUAUUGUGGU [salish99_SSNG3_R04_027] (Eterna round: R96, puzzle: Same State NG 3)",,,,28.8 nM,17 nM,24.5 nM
GCAGCACAUGAGGAUCACCCAUGUCUUCGGAGUCGAGGAUAUGGUCACUGUAAACAGUGGCCAGAAGGCGAGUUGC [SS1 - Son of Teenbexe v5] (puzzle: Same State 1),,24.3 nM,,,,
CUCAAACAUGAGGAUCACCCAUGUUUUUUCAUGGGAGGAUAUCUAAGUUCAUUAUAUUCAGGAGAAGGCCUAUGUC [× ×•×ª×• ×ž×“×™× ×” × ×—×ª-07] (puzzle: Same State 1),159 nM,729 nM,261 nM,,,
"CGUCGUUUGAUAGGAUAUCGCUUUACAUGCGGAUCACCCAUGUUUACCACGCUGGUUUUUCUUUCCGAGAAGGAUUCUGAUGUU [salish99_SSNG02_r04_026] (Eterna round: R96, puzzle: Same State NG 2)",,,,42 nM,10.1 nM,134 nM
"AUAAUACAUGAGGAUCACCCAUGUAAUUUAACUUGUAAGAUCAAGGAUAUCAGCUCGAUUAGAGCUGAGAAGGUGAUCACAUGU [SSNG3/20-A2] (Eterna round: R96, puzzle: Same State NG 3)",,,,,69.1 nM,
"GCUCGAUGAGCUGUUUACAUGAGGAUCACCCAUGUAAAUGGGCAGGAUAUUUACGUGCUUUGUGUAGAGAAGGGCCCAUCGAGC [SameState NG3 #76] (Eterna round: R96, puzzle: Same State NG 3)",,,,32.4 nM,103 nM,235 nM
"UCGGGCGUACUUGCUGACAUGAGGAUCACCCAUGUAAAUGGGAAGGAUAUGGUUCCGUUUCGGUACCAGAAGGUCCUGGGUGCU [salish99_SSNG3_r04_310] (Eterna round: R96, puzzle: Same State NG 3)",,,,459 nM,748 nM,1030 nM
"GCUAGGAAUAAAGCCAACAUGAGGAUCACCCAUGUAUGUUGGUAGGAUAUCGUUUGCAAAGCAAACGAGAAGGGCUAACCUAGC [Mat - Same State NG 3 - JL Mod - D68] (Eterna round: R96, puzzle: Same State NG 3)",,,,85.8 nM,62.7 nM,71.1 nM
GUAGGACAUGAGGAUCACCCAUGUGGGAGGGAACGAGGAUAUGUGAAAGGAUUGAAGAGGACAGAAGGCGUGGAGG [JR_SS1_Sub026] (puzzle: Same State 1),,30.1 nM,,,,
"ACAUGAGGAUCACCCAUGUCGGAUAAGGAAACGACCACGUGGGAGGAUAUUGUAACGCGUCUGUACGAGAAGGCCCAUUCCAGU [Eternabot solution 42] (Eterna round: R96, puzzle: Same State NG 3)",,,,29.2 nM,66.8 nM,80.8 nM
"CGCCAGAGAGCAGGAUAUGGGCCACGGCCUAAGGGCUGUGAACUCACAUGAGGAUCACCCAUGUCCCAGAAGGGCUCCUGGCUA [Temabeanan] (Eterna round: R96, puzzle: Same State NG 2)",,,,112 nM,1020 nM,1180 nM
ACAAGCUUUUCUGUAUUGAAAGGUGGGAUACAUGAGGAUCACCCAUGUUUGUUUGUUUAUUGUUUUCCUCGUCUUAU [JR_SHM208A_Sub089] (puzzle: Sensor for hsa-mir-208a),71 nM,27.5 nM,66.2 nM,,,
UUUGGGUGGCUGGAGGAUAUUCUUGUGGUUACAUGAGGAUCACCCAUGUGCCGCGCGGUGCGCGAGGAGAAGGCUGGCGGCCGUU (puzzle: Same State 2),21.7 nM,48.3 nM,65.7 nM,,,

Sequence,apparent KD of MS2 coat protein [1],apparent KD of MS2 coat protein [2],apparent KD of MS2 coat protein [3],apparent KD of MS2 coat protein (input ligand: FMN 200 uM),apparent KD of MS2 coat protein [4],apparent KD of MS2 coat protein (input ligand: none)
"UUGCUCGUGUGAGGAUAUGCCGCCGUUUCGGCUGCAGAAGGUACUCUAAUACAUGAGGAUCACCCAUGUCUCUGUUGUUUCGUG [salish99_SSNG1_r04_935] (Eterna round: R96, puzzle: Same State NG 1)",,,,86.7 nM,52.4 nM,80.9 nM
GGUUUAGUCGAGUGCCAUUCCACUCGAAAACAUGAGGAUCACCCAUGUUUGGGACAAGCUUUGCUCCUCGUCUUUCC [Inertequ] (puzzle: Sensor for hsa-mir-208a),259 nM,75.8 nM,371 nM,,,
"GAGUAGUUGAAAGGAUAUAGAUUAUUGUAGGAUCUAGAAGGUUCUAACAUGAGGAUCACCCAUGUAGGACUAUUCCUGUGUAUC [Parity 88 - Jieux - Same State NG 1] (Eterna round: R96, puzzle: Same State NG 1)",,,,9.56 nM,9.27 nM,12.6 nM
"AGAUGUUAAUCAGGAUAUGGGCACAUGAGGAUCACCCAUGUAACGUAGAUACGAUGUGGUCAAGUCUAGAAGGGAUGGCUAACA [SameState NG2 #79] (Eterna round: R96, puzzle: Same State NG 2)",,,,49.9 nM,68.2 nM,90.7 nM
AUAAAACAUGAGGAUCACCCAUGUCAACAAAGUCGAGGAUAUGGGCAAAUAAAAUAAGAAUCAGAAGGCGAAUAAU [salish99_ss1_r3_030] (puzzle: Same State 1),265 nM,330 nM,404 nM,,,
"CGUCCGGCCUGAGCUGGACGGAGGCAUGUACAUGAGGAUCACCCAUGUUCAUGUGCAGGCUUUUUGCUCGUCUUGUG [JL-shm-2.07 JL mod] (Eterna round: R96, puzzle: Sensor for hsa-mir-208a)",,,,62.8 nM,10.6 nM,57.8 nM
CUAUGACAUGAGGAUCACCCAUGUGAUAAUUUCAUAGGAUAUACGGCGCCGUUAAGGGCCGUAGAAGGGUGAUCGA [Veonti] (puzzle: Same State 1),35.4 nM,30.7 nM,22.9 nM,,,
"GGAGCCGGCACCGAGGAUAUUCAUAUUAAAACAUGAGGAUCACCCAUGUAGAGCGAAAGCUCUUGGGAGAAGGCGGAUCGGCUCG [Xeonanis - 28] (Eterna round: R96, puzzle: Same State 2)",,,,34.6 nM,488 nM,665 nM
"CGGGUCGUGCUAGGAUAUCUAGGAUAUGGACGAGGAUUACCCGAGCAGCAUUAGCGCACCAGAGGAGAGAAGGAGCGUGAUGCG [pwkr ssNG2 2F5 2FMN.15] (Eterna round: R96, puzzle: Same State NG 2)",,,,287 nM,42.2 nM,109 nM
GGCUAUCGCGUACGAUAGCUUAGGCAUGUACAUGAGGAUCACCCAUGUCAUGUACAGGCUUUUUGCUCGUCUUAUUG [JL-shm-2.36 JL mod] (puzzle: Sensor for hsa-mir-208a),179 nM,16.7 nM,210 nM,,,
CCUUAACAUGAGGAUCACCCAUGUAACAAGGAGUAAGGAUAUACAUGGGAAAACAGUCAUGUAGAAGGUACAAAAG [Rexereon] (puzzle: Same State 1),15 nM,11.8 nM,18 nM,,,
GUGGUGUAGAUACAGGAUAUGUUGCUCGUAACAUGAGGAUCACCCAUGUAUCUAUGAGAAUAAAUGCAGAAGGGUGCACACCACU [Mat - Same State 2 - Mod of UCT - D74] (puzzle: Same State 2),24.7 nM,467 nM,639 nM,,,
"UUGAGGAAUUAAGGAUAUUGAGUACAUAUGUUUAACAUGAGGAUCACCCAUGUGGGUUGCGGUAUCGAGAAGGUAAAUUACUAC [salish99_SSNG2_r04_801] (Eterna round: R96, puzzle: Same State NG 2)",,,,113 nM,73.2 nM,120 nM
AGAGAACAUGAGGAUCACCCAUGUAGGAUGGGCAUAGGAUAUAGAGGAAUGAGGGAGGAGCUAGAAGGAUGAUGGA [JR_SS1_Sub078] (puzzle: Same State 1),110 nM,192 nM,145 nM,,,
"GGAAUAUUUACAGGAUAUGUUUUGUUAAGUCGAGCAGAAGGGUGGAUGUCUUACACGGUUUGUUACAUGAGGAUCACCCAUGUC [SameState NG1 #15] (Eterna round: R96, puzzle: Same State NG 1)",,,,,188 nM,
AGAAUACAUGAGGAUCACCCAUGUCAACGUAGUCGAGGAUAUGGGCAGCCGUGAGGCGUACUAGAAGGCGAAGAGA [Mat - Same State 1 - Mod of JL - D6] (puzzle: Same State 1),99.8 nM,437 nM,280 nM,,,
